According to the supplement of paper PMC11865577:

Each sequence was assayed on G-clamp-N3 (biotin conjugate) (assay: pull-down binding Z-score (relative to library population); higher = stronger binding). Conditions: RNA library: Library-1 (pre-miRNA loops + repeats).
How it was run: (§1)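 Streptavidin beads bearing 100 pmol of a biotin-conjugated small molecule were incubated for 60 min at 25 °C with 1 μg of heat-folded, Cy5- or Cy3-end-labelled RNA library in phosphate/NaCl/KCl buffer. Hot SDS eluted the RNA that stayed bound after three washes, and this RNA was hybridised for 20 h at 55.5 °C to a DNA barcode microarray. Binding was expressed as a Z-score against the library mean and standard deviation, after subtraction of a beads-only signal and trimmed averaging of barcoded replicate probes.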

Sequence | pull-down binding Z-score
AGUGGAAAAAGUUCUUUUCUUCCUCU [hsa-mir-3192] | 0.387
AGUGGACGAGUCUCAUUA [hsa-mir-3193] | -0.476
AGUGGCCAAUUCCU [hsa-mir-4251] | -0.851
AGUGGUGCAAUCUCAGUUCACU [hsa-mir-3135a] | -0.112
AGUGUGCAGUCAUCCACACA [hsa-mir-4731] | -0.603
AGUGUUGUUUUUUCCCCCGCCAAUAUU [hsa-mir-92b] | -0.606
AGUUACACAGCUCACGAGUGCCU [hsa-mir-370] | -0.352
AGUUAGAAUUCUUAAGUAUCAAAACUAAAU [hsa-mir-4760] | -1.22
AGUUCAGGAGGUGGCACUGCUGUGUGUGAGCU [hsa-mir-6876] | 1.55
AGUUCCUGAUUAAGAAAUGGAAUU [hsa-mir-4699] | -0.224
AGUUCGCUUUUAUUAAUGACGAAUA [hsa-mir-410] | -0.994
AGUUGAACACUUGUUGGGACAACCU [hsa-mir-4421] | -0.336
AGUUGGACACUCCAUGUGGUAGAGUGUC [hsa-mir-223] | 0.453
AGUUGUGAAUUCUCAAAACACCU [hsa-mir-660] | -0.342
AGUUUCUGGAAGUUCUGACAUUCCAGAAACU [hsa-mir-3199-1] | -0.18
AGUUUCUGGAAUGUCAGAACUUCCAGAAACU [hsa-mir-3199-2] | -0.327

Sequence | pull-down binding Z-score
AGUUUGUGAUAAUGUUUGUCUAUAUAGUUAUGAAUG [hsa-mir-4307] | 0.397
AUAAUACGGAUUACGUUGUUA [hsa-mir-137] | -1.89
AUACUGGAGCAAUAGAUACAGUU [hsa-mir-3692] | -0.223
AUAGAACAUUGACAUCAACACUAG [hsa-mir-4278] | -2.05
AUAGCACAAAGUCUUAUGGUACUGU [hsa-mir-3169] | 1.12
AUAGUUGAGGAGGACACCCAAGGAGAUCACUAU [hsa-let-7e] | -0.413
AUAGUUGUGGGGUAGUGAUUUUACCCUGUUCAGGAGAUAACUAU [hsa-let-7f-1] | -0.471
AUAGUUUAGAAUUACAUCAAGGGAGAUAACUGU [hsa-let-7a-2] | 0.705
AUAGUUUGGGGCUCUGCCCUGCUAUGGGAUAACUAU [hsa-let-7a-3] | 0.889
AUAGUUUUAGGGCAGGGAUUUUGCCCACAAGGAGGUAACUAU [hsa-let-7d] | -0.917
AUAGUUUUAGGGUCACACCCACCACUGGGAGAUAACUAU [hsa-let-7a-1] | 0.294
AUAGUUUUAGGGUCAUACCCCAUCUUGGAGAUAACUAU [hsa-let-7f-2] | -1.63
AUAUAAAAUGCAAUUA [hsa-mir-3945] | -1.21
AUAUAAGGGAAGGCAUUAUAG [hsa-mir-3117] | 0.00615
AUAUAGAUAUCAGCUACCUAUAU [hsa-mir-3144] | -0.95

These sequences were tested on TO-3-N3 (biotin conjugate) in the same assay as above. Conditions: RNA library: Library-2.
How it was run: as §1

Sequence | pull-down binding Z-score
AGUGGAAAAAGUUCUUUUCUUCCUCU [hsa-mir-3192] | 0.0782
AGUGGACGAGUCUCAUUA [hsa-mir-3193] | 0.224
AGUGGCCAAUUCCU [hsa-mir-4251] | -0.482
AGUGGUGCAAUCUCAGUUCACU [hsa-mir-3135a] | 0.121
AGUGUGCAGUCAUCCACACA [hsa-mir-4731] | -0.32
AGUGUUGUUUUUUCCCCCGCCAAUAUU [hsa-mir-92b] | -0.34
AGUUACACAGCUCACGAGUGCCU [hsa-mir-370] | -0.261
AGUUAGAAUUCUUAAGUAUCAAAACUAAAU [hsa-mir-4760] | 0.216
AGUUCAGGAGGUGGCACUGCUGUGUGUGAGCU [hsa-mir-6876] | 0.801
AGUUCCUGAUUAAGAAAUGGAAUU [hsa-mir-4699] | -0.435
AGUUCGCUUUUAUUAAUGACGAAUA [hsa-mir-410] | -0.624
AGUUGAACACUUGUUGGGACAACCU [hsa-mir-4421] | 0.939
AGUUGGACACUCCAUGUGGUAGAGUGUC [hsa-mir-223] | 0.617
AGUUGUGAAUUCUCAAAACACCU [hsa-mir-660] | -0.401
AGUUUCUGGAAGUUCUGACAUUCCAGAAACU [hsa-mir-3199-1] | -0.846
AGUUUCUGGAAUGUCAGAACUUCCAGAAACU [hsa-mir-3199-2] | 0.748

Sequence | pull-down binding Z-score
AGUUUGUGAUAAUGUUUGUCUAUAUAGUUAUGAAUG [hsa-mir-4307] | -0.811
AUAAUACGGAUUACGUUGUUA [hsa-mir-137] | -0.188
AUACUGGAGCAAUAGAUACAGUU [hsa-mir-3692] | -0.727
AUAGAACAUUGACAUCAACACUAG [hsa-mir-4278] | -0.104
AUAGCACAAAGUCUUAUGGUACUGU [hsa-mir-3169] | 0.174
AUAGUUGAGGAGGACACCCAAGGAGAUCACUAU [hsa-let-7e] | 0.341
AUAGUUGUGGGGUAGUGAUUUUACCCUGUUCAGGAGAUAACUAU [hsa-let-7f-1] | 0.676
AUAGUUUAGAAUUACAUCAAGGGAGAUAACUGU [hsa-let-7a-2] | -0.34
AUAGUUUGGGGCUCUGCCCUGCUAUGGGAUAACUAU [hsa-let-7a-3] | -0.227
AUAGUUUUAGGGCAGGGAUUUUGCCCACAAGGAGGUAACUAU [hsa-let-7d] | 0.236
AUAGUUUUAGGGUCACACCCACCACUGGGAGAUAACUAU [hsa-let-7a-1] | 0.853
AUAGUUUUAGGGUCAUACCCCAUCUUGGAGAUAACUAU [hsa-let-7f-2] | -0.384
AUAUAAAAUGCAAUUA [hsa-mir-3945] | 0.256
AUAUAAGGGAAGGCAUUAUAG [hsa-mir-3117] | 0.00808
AUAUAGAUAUCAGCUACCUAUAU [hsa-mir-3144] | -0.694

These sequences were tested on TO-3-N3-2 (biotin conjugate) in the same assay as above. Conditions: RNA library: Library-2.
How it was run: as §1

Sequence | pull-down binding Z-score
AGUGGAAAAAGUUCUUUUCUUCCUCU [hsa-mir-3192] | 0.895
AGUGGACGAGUCUCAUUA [hsa-mir-3193] | 0.319
AGUGGCCAAUUCCU [hsa-mir-4251] | -0.313
AGUGGUGCAAUCUCAGUUCACU [hsa-mir-3135a] | -0.238
AGUGUGCAGUCAUCCACACA [hsa-mir-4731] | -0.196
AGUGUUGUUUUUUCCCCCGCCAAUAUU [hsa-mir-92b] | 0.29
AGUUACACAGCUCACGAGUGCCU [hsa-mir-370] | -0.0679
AGUUAGAAUUCUUAAGUAUCAAAACUAAAU [hsa-mir-4760] | 0.252
AGUUCAGGAGGUGGCACUGCUGUGUGUGAGCU [hsa-mir-6876] | 0.631
AGUUCCUGAUUAAGAAAUGGAAUU [hsa-mir-4699] | -0.107
AGUUCGCUUUUAUUAAUGACGAAUA [hsa-mir-410] | -0.0101
AGUUGAACACUUGUUGGGACAACCU [hsa-mir-4421] | 0.156
AGUUGGACACUCCAUGUGGUAGAGUGUC [hsa-mir-223] | -0.0653
AGUUGUGAAUUCUCAAAACACCU [hsa-mir-660] | -0.349
AGUUUCUGGAAGUUCUGACAUUCCAGAAACU [hsa-mir-3199-1] | -0.409
